Results as given in patent US20100021538A1, “PHARMACEUTICAL COMPOSITIONS CONTAINING HEPARIN DERIVATIVES” (priority 2008, published 2010).

Test: Particle size of heparin-DOCA solutions with solubilizers by electrophoretic light scattering
Assay type: physicochemical
Conditions: aqueous 1 mg/ml heparin-DOCA solution, solubilizer added at 0.1 mg/ml, ELS-8,000, N.D. = particles were not detected
Procedure: To measure the formation of self-assembled nanoparticles in aqueous solutions of heparin-DOCA and to observe the prevention of particle formation due to a solubilizer, the solubilizers shown in Table 1 were added at a concentration of 0.1 mg/ml to 1 mg/ml of heparin-DOCA solution, and electrophoretic light scattering spectrophotometry (ELS-8,000) was used to measure the size of particles in the solution.

Question: What does the source list for Heparin-Deoxycholic Acid [Heparin-DOCA]?
Answer: Particle Size (nm): 369.5 nm; Particle Size (nm) (listed as heparin-deoxycholic acid): 370 nm
